From US20160320385A1 come the findings set out here.

Test [1] addresses monoclonal antibody (moAb) G12. Description: competitive ELISA with G12-HRP on a plate coated with Sigma gliadin.
Test [2] deals with PWG gliadin (intact, undigested) (wheat). Description: immunochromatographic strips based on G12 moAb (GlutenTox stick); gliadin.
Test [3] deals with PWG gliadin after gastric and intestinal digestion (pepsin, then trypsin and chymotrypsin). Description: immunochromatographic strips based on G12 moAb (GlutenTox stick); hydrolyzed gliadin.
In test [4] the target is 33-mer peptide from alpha-2 gliadin. Put plainly: immunochromatographic strips based on G12 moAb (GlutenTox stick); untreated 33-mer peptide.
The target is the same in test [5]. Put plainly: immunochromatographic strips based on G12 moAb (GlutenTox stick); 33-mer peptide after digestion.

33-mer peptide from alpha-2 gliadin, sequence (peptide, as listed by the source): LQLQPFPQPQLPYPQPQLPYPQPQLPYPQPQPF

Take “PWG gliadin after gastric digestion (pepsin)”: in test [1], the concentration of 33-mer (33-mer equivalents) was found to be 24.5 ng 33-mer/ng.

On to monoclonal antibody (moAb) G12, for which the detection limit was 30 ng/mL in test [2], 50 ng/mL in test [3], 0.5 ng/mL in test [4] and 0.5 ng/mL in test [5].

In the case of PWG gliadin (intact, undigested), in test [1], the concentration of 33-mer (33-mer equivalents) worked out at 21.6 ng 33-mer/µg.

For the substance “PWG gliadin after gastric and intestinal digestion (pepsin, then trypsin and chymotrypsin)”, the concentration of 33-mer (33-mer equivalents) in test [1] came out at 7.5 ng 33-mer/µg.
